Measured values from patent US20180355053A1 (Stanford University, published 2018).

T1: human CD20 (human, UniProt P11836 1-297)
T1 construct: whole, on cells; also called MS4A1
T1 sequence (looked up): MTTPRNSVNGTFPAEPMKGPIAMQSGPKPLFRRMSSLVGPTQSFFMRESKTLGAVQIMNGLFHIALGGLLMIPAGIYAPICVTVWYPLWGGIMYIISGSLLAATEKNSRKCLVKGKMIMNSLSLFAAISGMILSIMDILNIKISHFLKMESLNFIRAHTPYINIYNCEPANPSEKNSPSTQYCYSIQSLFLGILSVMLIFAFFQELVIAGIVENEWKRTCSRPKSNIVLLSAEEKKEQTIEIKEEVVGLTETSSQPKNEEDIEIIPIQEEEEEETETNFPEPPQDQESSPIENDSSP


Assays:
[1] = target: T2, human CD47 tagged with mouse Fc (human, UniProt Q08722 19-139, limits assumed); test: ELISA on immobilized recombinant CD47
T2 construct: also called recombinant CD47 antigen
Method: FIG. 7: SIRPα-rituximab bispecific reagents bind to CD47 with reduced affinity relative to anti-CD47 and other bispecific antibody formats. Binding of the indicated antibodies to the recombinant CD47 antigen was measured by ELISA over a range of concentrations. Immobilized human CD47 tagged with mouse Fc was used to capture the indicated antibodies prior to detection with HRP-conjugated antibody directed against the human kappa light chain. Data are representative of three experiments performed in triplicate.

human CD20 [2] = target: T1, human CD20; test: flow cytometry on CD20+CD47- YB2/0 cells
Source text: FIG. 3A-3B: SIRPα-rituximab bispecific reagents bind to CD20 on the cell surface. The indicated antibodies were used to stain rat YB2/0 cells engineered to express human CD20, but not human CD47 (CD20+CD47−) prior to detection with anti-human secondary antibody by flow cytometry. 2B8=anti-CD20, B6H12=anti-CD47.

human CD47 = target: T3, human CD47 (human, UniProt Q08722 19-323); test: flow cytometry on CD20-CD47+ YB2/0 cells
T3 construct: whole, on cells
Source text: FIG. 5A-5B: SIRPα-rituximab bispecific reagents bind to CD47 on the cell surface with reduced affinity relative to anti-CD47. The indicated antibodies were used to stain rat YB2/0 cells engineered to express human CD47, but not human CD20 (CD20−CD47+) prior to detection with fluorescently tagged anti-human secondary antibody by flow cytometry. 2B8=anti-CD20, B6H12=anti-CD47.

human CD20 [3] = target: T1, human CD20; test: flow cytometry competition with 10 µg/ml DyLight 488 anti-CD20 on CD20+CD47- YB2/0 cells
Source text: FIG. 4: SIRPα-rituximab bispecific reagents bind to CD20 with similar affinity as parental antibody.

| binding result [1] | binding result (human CD20 [2]) | binding result (human CD47) | binding result (human CD20 [3]) | Binder |
| --- | --- | --- | --- | --- |
| binds | binds | binds | – | CD20-2GL-SIRPα (bispecific antibody, human IgG1, kappa, Wild type human SIRPα N-terminal Ig fold fused to the C terminus of the rituximab heavy chain through (GGGGS)2; also called CD20-2GL-SIRPα HC; SIRPabody) heavy: not shown light: QIVLSQSPAILSASPGEKVTMTCRASSSVSYIHWFQQKPGSSPKPWIYATSNLASGVPVRFSGSGSGTSYSLTISRVEAEDAATYYCQQWTSNPPTFGGGTKLEIKRTVAAPSVFIFPPSDEQLKSGTASVVCLLNNFYPREAKVQWKVDNALQSGNSQESVTEQDSKDSTYSLSSTLTLSKADYEKHKVYACEVTHQGLSSPVTKSFNRGEC |
| binds | binds | binds | – | CD20-4GL-SIRPα (bispecific antibody, human IgG1, kappa, Wild type human SIRPα N-terminal Ig fold fused to the C terminus of the rituximab heavy chain through (GGGGS)4; also called SIRPabody; SIRPα-rituximab bispecific reagent) heavy: not shown light: QIVLSQSPAILSASPGEKVTMTCRASSSVSYIHWFQQKPGSSPKPWIYATSNLASGVPVRFSGSGSGTSYSLTISRVEAEDAATYYCQQWTSNPPTFGGGTKLEIKRTVAAPSVFIFPPSDEQLKSGTASVVCLLNNFYPREAKVQWKVDNALQSGNSQESVTEQDSKDSTYSLSSTLTLSKADYEKHKVYACEVTHQGLSSPVTKSFNRGEC |
| binds | – | binds | binds | SIRPα-CD20 (bispecific antibody, human IgG1, kappa, also called SIRPabody; SIRPα-rituximab bispecific reagent) heavy: not shown light: QIVLSQSPAILSASPGEKVTMTCRASSSVSYIHWFQQKPGSSPKPWIYATSNLASGVPVRFSGSGSGTSYSLTISRVEAEDAATYYCQQWTSNPPTFGGGTKLEIKRTVAAPSVFIFPPSDEQLKSGTASVVCLLNNFYPREAKVQWKVDNALQSGNSQESVTEQDSKDSTYSLSSTLTLSKADYEKHKVYACEVTHQGLSSPVTKSFNRGEC |
